Target: 14-3-3τ (UniProt P27348)
Assay: split luciferase kinase inhibitor screen
Details: reference: DMSO-treated; sites S127

Substance	fold change	other: suppressed fold change
YAP (YAP1) 120-134 (from UniProt P46937) API-2 (PKB), 10 μM 4 h	10.6	–
YAP (YAP1) 120-134 (from UniProt P46937) BIO (GSKa/b), 10 μM 4 h	14.4	–
YAP (YAP1) 120-134 (from UniProt P46937) GSK650394 (SGK), 10 μM 4 h	–	1.73
YAP (YAP1) 120-134 (from UniProt P46937) Genistein (EGFR), 10 μM 4 h	6.12	–
YAP (YAP1) 120-134 (from UniProt P46937) Ro 31-8220 (General), 10 μM 4 h	–	5.21
YAP (YAP1) 120-134 (from UniProt P46937) Ryuvidine (CDK4), 10 μM 4 h	5.88	–
YAP (YAP1) 120-134 (from UniProt P46937) SU 4312 (VEGFR1/2), 10 μM 4 h	27.9	–

Next, values leading:

fold change	other: suppressed fold change	Substance
–	1.85	YAP (YAP1) 120-134 (from UniProt P46937) CGK 733 (ATM/ATR), 10 μM 4 h
–	3.71	YAP (YAP1) 120-134 (from UniProt P46937) ER 27319 (SYK), 10 μM 4 h
16.9	–	YAP (YAP1) 120-134 (from UniProt P46937) PD 98059 (MEK), 10 μM 4 h
–	1.73	YAP (YAP1) 120-134 (from UniProt P46937) PD 407824 (CHK1), 10 μM 4 h
–	6.51	YAP (YAP1) 120-134 (from UniProt P46937) Ro 08-2750 (TrkA), 10 μM 4 h

Source: publication PMC5849716
